Consider 18 molecules from US20200199244A1 (published 2020).

Several values for one entry are separate records, joined by “and”; a condition that tells them apart may be missing. Equal values may be shown once. A value given as a limit tells only on which side of the number the result lay.

Assay [1] addresses T1, wild type human CD40 Fc fusion (human, UniProt P25942 21-193).
T1 construct: also called wt-hCD40
The assay can be described thus: SPR (ProteOn XPR36), dAb over CD40-Fc captured by anti-human IgG(Fc).
Procedure: (§1) Assays were performed on a BioRad ProteOn XPR36 SPR instrument. The SPR surfaces were prepared by immobilizing 8 μg/ml anti-human IgG(Fc) antibody (Biacore/GE Healthcare) in 10 mM sodium acetate pH 4.5 on a BioRad GLC sensor chip using standard ethyl(dimethylaminopropyl) carbodiimide (EDC)/N-hydroxysuccinimide (NHS) chemistry, with ethanolamine blocking. The running buffer for immobilization and kinetic binding analysis was 10 mM sodium phosphate, 130 mM sodium chloride, 0.05% tween 20, pH 7.1. CD40-Fc fusion proteins at concentrations of 20 μg/ml were captured in the vertical orientation on these surfaces via the Fc tail, and reference surfaces lacking CD40-Fc proteins were used for reference subtraction. […] The surfaces were regenerated in both horizontal and vertical orientations with 30 s pulses of 3 M MgCl₂ followed by running buffer at 60 μl/min. Sensogram data was double-referenced and then fitted to a 1:1 Langmuir model using BioRad ProteOn Manager V.2.1.0.38 software, to determine the association rate constant (ka), the dissociation rate constant (kd), and the equilibrium dissociation constant (KD).

Assay [2] has as its target T2, human CD40 (H76R) Fc fusion (human, UniProt P25942 21-193).
T2 construct: Built as wt-hCD40 with the printed substitution; also called hCD40-M1; hCD40 M1 (H76R)
The assay is described as above.
Procedure: as §1

The target of assay [3] is T3, human CD40 expressed on stably transfected CHO-DG44 cells (human, UniProt P25942 21-277).
T3 construct: Cell-surface human CD40 in the CHO cell RBA; also called CHO-CD40; human CD40 CHO cells
The assay is described as follows: CHO-CD40 cell RBA, competition with IZ-CD40L (FMAT).
Procedure: The mixture was incubated in the absence of light for 6 hours.

For assay [4], the target named is T4, human CD40 (BMS, CY24FEB06-01) (human, UniProt P25942 21-193).
T4 construct: Soluble human CD40 reagent of the ELISA RBA
The assay can be described thus: ELISA RBA, competition with IZ-CD40L for soluble human CD40. (In general: In an ELISA, binding on a coated surface is turned into a signal by an enzyme label.)
Procedure: Clear walled High Bind, 384-well plates (Corning, UK) were coated with 25 μl of 1 μg/ml Neutravidin in 0.2 M carbonate-bicarbonate buffer, pH 9.4 overnight at 4° C. The following day, assay plates were washed with 0.1% (v/v) Tween PBS buffer, blocked with 1% (w/v) BSA in PBS for 1 hour at room temperature and washed again. […] Following washing of the assay plate, the dAb:human CD40 complex was incubated in the assay plate at room temperature for 2 hours with gentle agitation. […] Absorbance signal was measured using a SpectraMax® M5e plate reader (Molecular Devices) at 450 nm following neutralization with 1M HCl solution.

The target of assay [5] is human CD40 on RAMOS human B cells (human, UniProt P25942 21-277). The assay can be described thus: cell-based or functional assay.
Assay [6] deals with T5, human CD40 (W109L, L121P) Fc fusion (human, UniProt P25942 21-193).
T5 construct: Same construct as wt-hCD40 with W109L and L121P; also called hCD40-M4; hCD40 M4 (W109L, L121P); not shown: human IgG1 Fc
The assay is described as follows: SPR, ProteOn XPR36; CD40-Fc captured, dAb analyte. On the technique in general: SPR reads the build-up and loss of mass on a sensor chip optically.

For assay [7], the target named is T6, human CD40 (H76R, W109L, L121P) Fc fusion (human).
T6 construct: Same construct as wt-hCD40 with H76R, W109L and L121P; also called hCD40-M5; hCD40-M5 (H76R, W109L, L121P); not shown: human IgG1 Fc
T6 chain: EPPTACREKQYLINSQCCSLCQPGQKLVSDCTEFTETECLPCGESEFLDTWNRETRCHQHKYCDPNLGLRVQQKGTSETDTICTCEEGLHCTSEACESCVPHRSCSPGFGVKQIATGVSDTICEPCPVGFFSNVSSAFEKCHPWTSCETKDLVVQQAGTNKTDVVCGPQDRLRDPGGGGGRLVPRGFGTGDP
The assay can be described thus: SPR, ProteOn XPR36; CD40-Fc captured, dAb analyte.

Assay [8] concerns the target T7, wild type cynomolgus monkey CD40 Fc fusion (cynomolgus monkey (Macaca …)).
T7 construct: also called wt-cCD40; wt-cyno-CD40; not shown: human IgG1 Fc
T7 chain: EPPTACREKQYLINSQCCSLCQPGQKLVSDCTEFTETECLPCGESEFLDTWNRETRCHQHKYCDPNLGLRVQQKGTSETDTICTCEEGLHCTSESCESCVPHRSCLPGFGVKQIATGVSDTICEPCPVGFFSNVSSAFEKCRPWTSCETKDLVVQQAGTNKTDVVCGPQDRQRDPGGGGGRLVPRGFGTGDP
The assay is described as follows: SPR, ProteOn XPR36; CD40-Fc captured, dAb analyte.

The target in another assay is T8, cynomolgus serum albumin (cynomolgus, UniProt A2V9Z4 25-608).
T8 construct: Amine-coupled to a CM5 BIAcore chip; also called CSA; Cyno Serum Albumin
T8 sequence (A2V9Z4 25-608 limits assumed): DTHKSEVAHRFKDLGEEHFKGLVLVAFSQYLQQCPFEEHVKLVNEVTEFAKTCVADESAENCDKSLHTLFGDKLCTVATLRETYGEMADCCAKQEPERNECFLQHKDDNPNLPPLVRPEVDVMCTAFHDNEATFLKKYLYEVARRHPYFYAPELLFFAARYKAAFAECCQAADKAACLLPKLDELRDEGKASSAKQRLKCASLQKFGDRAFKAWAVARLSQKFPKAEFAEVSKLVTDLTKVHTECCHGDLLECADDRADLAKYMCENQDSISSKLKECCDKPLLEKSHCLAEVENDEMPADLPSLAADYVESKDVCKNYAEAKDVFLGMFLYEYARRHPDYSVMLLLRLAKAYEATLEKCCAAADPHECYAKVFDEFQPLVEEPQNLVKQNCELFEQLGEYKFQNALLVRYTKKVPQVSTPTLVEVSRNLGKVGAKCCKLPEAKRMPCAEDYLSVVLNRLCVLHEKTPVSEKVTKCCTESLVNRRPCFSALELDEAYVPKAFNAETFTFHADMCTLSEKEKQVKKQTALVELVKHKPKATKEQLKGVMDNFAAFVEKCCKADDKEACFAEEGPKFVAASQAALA
The assay can be described thus: SPR (BIAcore 3000), CSA amine-coupled on CM5 chip, ILF as analyte, 1:1 Langmuir fit, 25 C.

The target of assay [9] is T9, human CD40 (human, UniProt P25942 21-277).
T9 construct: Native on primary human tonsillar B cells, monocyte-derived dendritic cells and RAMOS cells; stably transfected on CHO-DG44 cells; also called hCD40
The assay can be described thus: CHO-CD40 cell RBA: competition with biotinylated human IZ-CD40L for human CD40 on CHO cells, fluorescence (FMAT); 0.1% BSA.

Assay [10] concerns the target T9, human CD40. The assay is described as follows: CHO-CD40 cell RBA: competition with biotinylated human IZ-CD40L for human CD40 on CHO cells, fluorescence (FMAT); 50 µM HSA.
The target of the next assay is T10, human serum albumin (human, UniProt P02768 25-609).
T10 construct: Amine-coupled to a CM5 BIAcore chip; also called HSA
T10 sequence (P02768 25-609 limits assumed): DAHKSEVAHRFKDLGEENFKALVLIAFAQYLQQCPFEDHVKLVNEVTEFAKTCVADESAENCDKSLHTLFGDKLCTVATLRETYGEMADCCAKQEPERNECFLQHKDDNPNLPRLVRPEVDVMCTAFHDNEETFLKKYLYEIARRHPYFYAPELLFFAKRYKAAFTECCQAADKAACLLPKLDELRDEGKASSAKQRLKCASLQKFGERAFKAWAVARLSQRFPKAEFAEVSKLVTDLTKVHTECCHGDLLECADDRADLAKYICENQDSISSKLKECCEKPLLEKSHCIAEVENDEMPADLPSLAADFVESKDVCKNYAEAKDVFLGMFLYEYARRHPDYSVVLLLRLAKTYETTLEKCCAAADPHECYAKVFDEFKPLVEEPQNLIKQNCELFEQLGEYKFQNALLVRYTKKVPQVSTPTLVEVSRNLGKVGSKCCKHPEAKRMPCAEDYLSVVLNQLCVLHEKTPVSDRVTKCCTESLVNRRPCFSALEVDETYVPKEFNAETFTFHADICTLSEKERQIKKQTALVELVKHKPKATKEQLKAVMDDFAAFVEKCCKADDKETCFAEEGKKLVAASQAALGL
The assay can be described thus: SPR (BIAcore 3000), HSA amine-coupled on CM5 chip, ILF as analyte, 1:1 Langmuir fit, 25 C.

Source text for cynomolgus serum albumin: (§2) A BIAcore™ 3000 instrument (GE Healthcare) was used to analyze the binding kinetics of anti-CD40-AlbudAb ILFs to human and cynomolgus serum albumin. Approximately 400 response units (RU) of human serum albumin (HSA) or cynomolgus serum albumin (CSA) were immobilized on a flow-cell of a CM5 BIAcore™ chip using an Amine Coupling Kit (GE Healthcare). A second flow cell without any ligand immobilized served as a reference flow-cell for inline referencing. An appropriate doubling dilution series of each dAb to be analyzed was prepared in HBS-EP buffer (0.01 M HEPES pH 7.4 with 0.15 M NaCl, 3 mM EDTA and 0.005% v/v Surfactant P20, GE Healthcare). Two hundred microlitres of each ILF were injected in duplicate using the instrument's KINJECT function. The injections were made across the serum albumin-immobilized and reference flow-cells in series, with inline subtraction of the signal from the reference cell. The experiment was performed at 25° C. and a flow rate of 40 μl/min of HBS-EP. After each injection had been completed, the dAb was allowed to dissociate from the ligand in buffer for 120 s before regeneration with a 10 μl injection of 10 mM glycine pH 2.0. A reference injection of HBS-EP buffer blank (containing no analyte) was also injected under the same conditions to serve as a second reference for subtraction from each analyte trace. BIAevaluation 4.1 software (GE Healthcare) was used to subtract both the reference flow-cell trace and the buffer blank trace from each analyte trace.
(§3) The same software was used to perform a simultaneous, global fit of a 1:1 (Langmuir) kinetic model to the association and dissociation phases of the analyte dilution series traces. This model yielded association and dissociation rate constants (kₐ and kd, respectively) and the equilibrium dissociation constant (KD) of the interaction.
Source text for human serum albumin: as §2, §3

B1: BMS3h-38-2 (other)
VH: EVQLLASGGGLVQPGGSLRLSCAASGFTFEEEEMIWVRQAPGKGLEWVSAISGSGGSTYYADSVKGRFTISRDNSKNTLYLQMNSLRAEDTAVYYCGKEPFRYDYWGQGTLVTVSS
notes: Human domain antibody (dAb), single VH domain
By Kd is commonly meant the constant that tells how readily two partners part at equilibrium. With B1, the equilibrium dissociation constant (Kd) in assay [1] and in assay [2] was less than 10 nM each time.

B2: BMS3h-38-215 (other)
VH: EVQLLASGGGLVQPGGSLRLSCAASGFTFEEEEMIWVRQAPGKGLEWVSAISGLGWSTYYADSVKGRFTISRDNSKNTLYLQMNSLRAEDTAVYYCGKEPFRYDYWGQGTLVTVSS
notes: as for B1
Turning to B2, the Kd in assay [1] and in assay [2] was less than 10 nM in each case.

B3: BMS3h-38-217 (other)
VH: EVQLLASGGGLVQPGGSLRLSCAASGFTFEEEEMIWVRQAPGKGLEWVSAISRRGYSTYYADSVKGRFTISRDNSKNTLYLQMNSLRAEDTAVYYCGKEPFRYDYWGQGTLVTVSS
notes: as for B1
Consider B3, for which the Kd in assay [1] and in [2] was less than 10 nM throughout.

B4: BMS3h-38-211 (other)
VH: EVQLLASGGGLVQPGGSLRLSCAASGFTFEEEEMIWVRQAPGKGLEWVSAISRQGGSTYYADSVKGRFTISRDNSKNTLYLQMNSLRAEDTAVYYCGKEPFRYDYWGQGTLVTVSS
notes: as for B1
On to B4, for which the Kd in assay [1] and in assay [2] was less than 10 nM throughout.

B5: BMS3h-56-262 (other)
VH: EVQLLESGGGLVQPGGSLRLSCAASGFTFRDYEMWWVRQAPGKGLERVSAINPQGTRTYYADSVKGRFTISRDNSKNTLYLQMNSLRAEDTAVYYCAKLPQLFHDRGQGTLVTVSS
notes: domain antibody (dAb): single human VH domain
As usually defined, the EC50 is the concentration needed to bring the measured effect to its halfway point. Take B5: the EC50 in [3] stood at 42 nM; in [4] it was 4 nM. Moreover, the “EC50 ICAM1 cell assay” value in [5] was 135 nM.

B6: BMS3h-56-261 (other)
VH: EVQLLESGGGLVQPGGSLRLSCAASGFTFRDYEMWWVRQAPGKGLERVSAINPQGTRTYYADSVKGRFTISRDNSKNTLYLQMNSLRAEDTAVYYCAKLPFFFQEWGQGTLVTVSS
notes: as for B5
Turning to B6, the EC50 in assay [3] is 17 nM; in [4], 5.7 nM. Besides, the “EC50 ICAM1 cell assay” value in assay [5] was 42.4 nM.

B7: BMS3h-56-1 (other)
VH: EVQLLESGGGLVQPGGSLRLSCAASGFTFRDYEMWWVRQAPGKGLERVSAINPQGTRTYYADSVKGRFTISRDNSKNTLYLQMNSLRAEDTAVYYCAKLPFTFEDWGQGTLVTVSS
notes: Anti-human CD40 domain antibody (dAb), single VH domain
Regarding B7, the binding result in assay [6], in [7] and in assay [8] was “no binding (tested: dAb tested up to 405 nM)” in each case.

B8: BMS3h-56-258 (other)
VH: EVQLLESGGGLVQPGGSLRLSCAASGFTFRDYEMWWVRQAPGKGLERVSAINPQGTRTYYADSVKGRFTISRDNSKNTLYLQMNSLRAEDTAVYYCAKLPFYFHEWGQGTLVTVSS
notes: as for B5
For B8, the results for the EC50 in assay [3] and in assay [4] were 15 nM and 5.2 nM, respectively. The “EC50 ICAM1 cell assay” value in [5] stood at 23 nM.

B9: BMS3h-56-269 (other)
VH: EVQLLESGGGLVQPGGSLRLSCAASGFTFRDYEMWWVRQAPGKGLERVSAINPQGTRTYYADSVKGRFTISRDNSKNTLYLQMNSLRAEDTAVYYCAKLPFRFSDRGQGTLVTVSS
notes: as for B5
For B9, the values for the EC50 in assay [3] and in assay [4] were 24 nM and 3.3 nM, respectively. Moreover, in assay [5], the “EC50 ICAM1 cell assay” value was 34.2 nM.

B10: BMS3h-56-270 (other)
VH: EVQLLESGGGLVQPGGSLRLSCAASGFTFRDYEMWWVRQAPGKGLERVSAINPQGTRTYYADSVKGRFTISRDNSKNTLYLQMNSLRAEDTAVYYCAKLPTLFQDWGQGTLVTVSS
notes: as for B5
For the molecule B10, the EC50 in assay [3] is 91 nM; in assay [4] it was 11.3 nM. Further, the “EC50 ICAM1 cell assay” value in assay [5] was 93.8 nM.

B11: BMS3h-56-266 (other)
VH: EVQLLESGGGLVQPGGSLRLSCAASGFTFRDYEMWWVRQAPGKGLERVSAINPQGTRTYYADSVKGRFTISRDNSKNTLYLQMNSLRAEDTAVYYCAKLPFFFHEWGQGTLVTVSS
notes: as for B5
For B11, the EC50 is 27 nM in assay [3] and 3.8 nM in [4]. Moreover, the “EC50 ICAM1 cell assay” value in [5] is 31.9 nM.

B12: BMS3h-56-2 (other)
VH: EVQLLESGGGLVQPGGSLRLSCAASGFTFRDYEMWWVRQAPGKGLERVSAINPQGTRTYYADSVKGRFTISRDNSKNTLYLQMNSLRAEDTAVYYCAKLPFTFDDWGQGTLVTVSS
notes: as for B7
As to B12, the binding result in assay [6] and in [7] was “no binding (tested: dAb tested up to 405 nM)” each time.

B13: BMS3h-56-265 (other)
VH: EVQLLESGGGLVQPGGSLRLSCAASGFTFRDYEMWWVRQAPGKGLERVSAINPQGTRTYYADSVKGRFTISRDNSKNTLYLQMNSLRAEDTAVYYCAKLPQLFQDWGQGTLVTVSS
notes: as for B5
In the case of B13, the EC50 in assay [3] was 88 nM; in assay [4], 18.8 nM. In addition, the “EC50 ICAM1 cell assay” value in [5] worked out at 289 nM.

B14: DMS0659 DOM7h-11-87-TVAAPS-BMS3h-56-201 (bispecific antibody)
chain: DIQMTQSPSSLSASVGDRVTITCRASRPIGTMLSWYQQKPGKAPKLLILAFSRLQSGVPSRFSGSGSGTDFTLTISSLQPEDFATYYCAQAGTHHTTFGQGTKVEIKRTVAAPSEVQLLESGGGLVQPGGSLRLSCAASGFTFRDYEMWWVRQAPGKGLERVSAINPQGTRTYYADSVKGRFTISRDNSKNTLYLQMNSLRAEDTAVYYCAKLPFYFQEWGQGTLVTVSS
notes: AlbudAb inline fusion (ILF): an anti-CD40 dAb and an anti-serum-albumin dAb joined by a linker in one polypeptide
What is called koff is the first-order rate constant of dissociation. Regarding B14, the koff in the assay with cynomolgus serum albumin is 0.00237 s⁻¹ and 0.00337 s⁻¹ and 0.0024 s⁻¹; in the assay with human serum albumin, 0.00117 s⁻¹ and 0.00169 s⁻¹ and 0.0012 s⁻¹. The EC50 was 7.2 nM with human CD40 [9] and 3.3 nM in the assay with human CD40 [10].

B15: DMS0661 DOM7h-11-87-TVAAPS-BMS3h-56-258 (bispecific antibody)
chain: DIQMTQSPSSLSASVGDRVTITCRASRPIGTMLSWYQQKPGKAPKLLILAFSRLQSGVPSRFSGSGSGTDFTLTISSLQPEDFATYYCAQAGTHHTTFGQGTKVEIKRTVAAPSEVQLLESGGGLVQPGGSLRLSCAASGFTFRDYEMWWVRQAPGKGLERVSAINPQGTRTYYADSVKGRFTISRDNSKNTLYLQMNSLRAEDTAVYYCAKLPFYFHEWGQGTLVTVSS
notes: as for B14
On to B15, for which the EC50 with human CD40 [9] was 4.1 nM; in the assay with human CD40 [10] it was 5.7 nM.

B16: DMS0660 DOM7h-11-3-TVAAPS-BMS3h-56-258 (bispecific antibody)
chain: DIQMTQSPSSLSASVGDRVTITCRASRPIGTTLSWYQQKPGKAPKLLILWNSRLQSGVPSRFSGSGSGTDFTLTISSLQPEDFATYYCAQAGTHPTTFGQGTKVEIKRTVAAPSEVQLLESGGGLVQPGGSLRLSCAASGFTFRDYEMWWVRQAPGKGLERVSAINPQGTRTYYADSVKGRFTISRDNSKNTLYLQMNSLRAEDTAVYYCAKLPFYFHEWGQGTLVTVSS
notes: as for B14
Consider B16, for which the results for the EC50 with human CD40 [9] and with human CD40 [10] were 21.8 nM and 13.1 nM, respectively.

B17: BMS3h-37-2 (other)
VH: EVQLLESGGGLVQPGGSLRLSCAASGFTFEWYEMQWVRRAPGKGLEWVSAISGDGYRTYYADSVKGRFTISRDNSKNTLYLQMNSLRAEDTAVYYCAKELGYFDYWGRGTLVTVSS
notes: as for B1
In the case of B17, the Kd in [1] and in [2] was less than 10 nM in each case.

B18: BMS3h-37-11 (other)
VH: EVQLLESGGGLVQPGGSLRLSCAASGFTFEWYEMQWVRKAPGKGLEWVSAISGDGYRTYYADSVKGRFTISRDNSKNTLYLQMNSLRAEDTAVYYCAKELGYFDYRGRGTLVTVSS
notes: as for B1
For the molecule B18, the Kd in assay [1] and in assay [2] was less than 10 nM each time.
